# Assay: yeast display, Sf9 membrane polyspecificity reagent, FACS + sequencing; frameworks hold sequencing errors
# Method in brief: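 Genes from sorted yeast were amplified by colony PCR, read by MiSeq 2 × 250 sequencing and filtered on CDR length. These cells carried a synthetic nanobody library in Saccharomyces cerevisiae BJ5465 and were sorted by FACS into low and high (top ~1%) gates on anti-HA and streptavidin fluorescence. Polyreactivity is labelled according to the gate of origin.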
row,Sequence,polyreactivity (PSR sort gate)
1,QVQLLESGGGLVQAGGTLRLSCAASGSIIGRNAMGWYRQAPGKERELVAAITWRTGSTFYADSVKGRFTISRDNAKNTVYLQMNSLKPEDTAVYYCNAAGPAYSYYHWLWGDYNSWRQGTQVTVSS,low polyreactivity
2,QVQLVESGGGFVQAGGSLRLSCAASVSILWWYAMGWSRKATVKERELVAAITWSGTSTYYADSVKGRFTISRVNGKNTLYLQMISLKPEETAVYYCAVRSYVNGGWYDYWGQGTQGTVSS,high polyreactivity
3,QVQLVESGGGLVQAGGSLRLSCAASGFTFYTFAMGLYRQAPGKERELVASITNGGGTYYADSVKGRFTNSRDNAKNTVYLQMNSLKPEDTAVFYCARRVYYWGRYKDEYNYWGQGTQVTVSS,high polyreactivity
4,QVQLVESGGCLVQAGGSLRLSCAASGSILATNVMGWYRQSPGKESQFVAAISSGGSTNYADSVKGRFTISRDNAKYTVYLQMNSLKPEDTAVYYCATSSIWGSGRVRWVSYYYWGQGSQVTVSS,low polyreactivity
5,QVQLVESGGGLVQAGGSLRLSCAASGRTFRGNAMGWYRQAPGKERELVAAISRRGVSTYYADSVKGRFTISRDNAKNTVYLQMNSLKPEDTAVYYCNADTSYQRVGGNYWGQGTQVTVSS,high polyreactivity
6,QVQLVESGGGLVQAGGSLRLSCAASGRTFTGYAMGWYRQAPGKERELVASISGSGGRTNYADSVKGRFTISRDNAKNTVYLQMNSLKPEDTAVYYCNARAHSYRKSSYIYLPYSYDYWGQGTQVTVSS,high polyreactivity
7,QVQLVESVGGLVQAGGSLRLICAASGSTFTWYAIGWNRQAPGKERELVADITWRDGSTYYADSVKGRFTISRDNAKNTVYLQMNSLKPEDTAVYYCAADYTYWGIFFGYWGQGTQVTVSS,high polyreactivity
8,QVQLVESGGGLVQAGGSLRLSCAASGSTFYDNTMGSYRQAPGKERELVAAITGTGGNTYYADSVKGRFTISRDNAKNTVYLQMNSLKPEDTAVYYCNRVPVYYYRYGYWGQGTQVTVSS,low polyreactivity
9,QVQLVESGGGLVQAGGSLRLSCAASGIIFWWYTRGWYRQAPGKERELVAAISRGGNTNYADSVKGRFTISRDNAKNTVYLQMNSLKPEDTAGYYCAADRHYRFWQDDYWGQGTQVTVSS,high polyreactivity
10,QVQLVESGGGLVQAGGSLRLSCAASGSIFLIYAMGWYRQAPGKERELVATINRGDNTYYADSVKGRFTISRDNAKNTVYLQMNSLKPEDTAVYYCAADVPWGWWDSDFSDNYYWGQGTQVTVSS,low polyreactivity
11,QVQLVESGGGIVQAGGSLRLSCAASGSIFLYYAMGWYRQAPGNERQLVATINWSGGTTYYADSVKGRFTISRDNAKNTVYLQMNSLKPEDTAVYYCNKAKTAYRGQYDYWGQGTQVTVSS,high polyreactivity
12,QVQLVESGGALVQAGGSHRLSCAASGRIFAGNAMGWYRMAPGKEMELLAAISKSGGSTYYADSVKGRFTISRDNAKNTVYLQMNSLKAEDTAVSYCAKLYYPVSDQYDYYYWGPGTQVTVSS,low polyreactivity
13,QVQLVESGGGLVQAGGSLRLSCADSGRTFYYYAMGWYRQAPGKERELVASISYSAGRTYADSVKGRFTISRDNAKNTVYLQMNSLKPEDTAVYYCNADVTTVPYTNDYWGQGTQVTVSS,high polyreactivity
14,QVQLLESGGGLVQAGGSLRLSCAASGRTFWAYAMGWYRQAPGKERELVAAIDGGDGSTYYADSVKGRFTISRDYAKNTVYLQMNSLKPEDTAVYYCAAETPSGYYPQQYDYYLGQGTQVTVSS,high polyreactivity
15,QVQLVESGGGLVQAGGSLRLSCAASGFIFSSYGMGWYRQAPGKERELVADISGGGSTNYADSVKGRFTISRDNAKNTVYLQMNSLKPEDTAVYYCNAQLIRSAAYDYWGQGTQVTVSS,low polyreactivity
16,QVQLVESGGGLVQAGGSLRLSCAASGYTFSRNAMGWYRPAPGKERELVAAITGSGGSTYYADSVKGRFTISRDNAKNTVYLQMNSLKPEDTAVYYCASKYYGRSFYYGYDYWGQGTQVTVSS,low polyreactivity
17,QVQLVESGGGLVQAGGSLRLSCAASGSTFSTNAMGWYRQAPGKERELVASITRSGGSTYYADSVKGRFTISRDNAKNTFYLLMNSLKPEDTAVYYCNADGYYDYDYGYWGQGTQVTVSS,low polyreactivity
18,QVQLVESGGGLVQAGGSLRLSCAASGGPFKRNAMGWSRQAPGKERELVAAISTSGATTYYADSVKGRFTISRDTAKNTVYLQMNSLKPEDTAVYYCAARIRGYVYKGMNYWGQGTQVTVSS,high polyreactivity
19,QVQLQESGGGLVQAGGSLLICAASGTISWVDEMGWYRQAPGNERELVAGIAGGGNTNYADSVKGRYTISRDNAKNTVYLEMNSLDTAVYYCAVVGFGRGTHIYWGQGTQVTVSS,high polyreactivity
20,QVQLVESGGGLVQAGGSLRLSCAASGRIFPTYAMGWYRQAPGKERELVAGITSGGRTNYADSVKGRFTISRDNAKNTVYLQMNSLKPEDTAVYYCAKRVWPRDQYGKRNPRMDYWGQGTQVTVSS,high polyreactivity
21,QVQLVESGGGLVQAGGSLRLSCAASGRIFRRYTMGWYRQAPGKERELVAAISSGGTTYYADSVKGRFTISRDNAKNTVYLQMNSLKPEDTAVYYCAAPWRSSIPHYEYWGQGTQVTVSS,high polyreactivity
22,QVQLEESGGGLVQAGGSLRLSCAASGSTFSDNAKAWYRQATGKVRELVADITWSGGSTHYADSVKGRFTFSRDNAKNTVYLQMTSLKPEDTSVYYCARDNYKEGDYWGQGTKVTVSS,low polyreactivity

row,Sequence,polyreactivity (PSR sort gate)
1,QVQLVESGGGLVQARGSLRLSCAASGIIFGYNAKGWYRQAPGKERELVAVITWNGGSTYYADSVKGCFTISRDNAKNTVYLQMNSLKPEDTAVYYCNAGDDYAYGVELSYDYWGQGTQVTVSS,low polyreactivity
2,QVQLVESGGGLVQAGGSLRLSCAASGRTFRVYAMGWYRQAPGKERELVAAINGGGSTNYADSVKGRFTISRDNAKNTVYVQMNSLKPEDTAVYYCNATGRRSKRIYDYWGQGTQVTVSS,high polyreactivity
3,QVQLVESGVGLVQAGGSLRLSCAASGNTFTAYSMGWYRQAPGKERELVAAISSSGRTNYADSVKGRFTISRDNAKNTVYLQMNSLKPADTAVYYCAAAALRRNGVREGNYWGQGTQVTVSS,high polyreactivity
4,QVQLVESGGGLVQAGGSLRLSCAASGFIFPYYAMGWYRQAPGKERELVAANSRRGTSTFYADSVKGRFTISRDNAKNNVYLQMNSLKTEDTAVYYCNAEYGIGDDSWVQGTQVTVSS,high polyreactivity
5,QVQLVESGGGLVQAGGSLRLSCAASGSIFAQYAMGWYRQAPGKERELVATISSVGSTNYADSVKGRFTISRDNAKNTVYLQMNSLKPEDTAVYYCNAVRSGWGYFYGLNYWGQGTQVTVSS,low polyreactivity
6,QVQLVDSGGGLVQAGGSLRLSCAASGITITEYAMGWYRQAPGKERELVAVISSVGTMYYADSVKGRFTISRDNAKNTVYFQMNSLKPEDTAVYYCAADYSDDGEYPYWSGSDYWGQGTQVTVSS,low polyreactivity
7,QVQLVESGGGLVQAGGSLRLTCAASGSIFTYYVMGWYRQAPGKERELVATITGSSGSTYYADSVKGRFTISRDNAKNTVFLQMNSLKPEDTAVYYCATYGTLVYYYYPDMEYWGQGTQVTVSS,low polyreactivity
8,QVLLVESGGGLVQAGGSLRLSCAASGIILGDNARGWYRQAPGKDRVLDATISTSGVSTYYADSVKGRFTISRDNAKKTVNFQMNSLKPQDTAVYYCAASNEVPWRFPDDSWGQGTQVTVSS,low polyreactivity
9,QVQLVESGGGLVQAGGSLRLSCAASVGTFRRYAKGWYREAPGKERELVAAISWTGGSTYYADSVKGRFTISRDNAKNNVYLQMNSLKPEDTAVYYCAAVGSSSSKGGYWGQGTQVTVSS,high polyreactivity
10,QVQLVESGGGLVQAGGSLRLSCAASGSTFPIYAMGWYRQAPGKERELVAAITHRDGSTYYADSVKGRFTISRDNAKNTVYLQMNSLKPEDTAVYYCAAETYVVWFTFDYWGQGTQVTVSS,high polyreactivity
11,QVQLVESGGGLDQAGGSLRLSCAASGSIFFTYVMGWYRQAPGKERQLVAAISSDDITNYADSVKGRFTISRDNAKNTVYLQMNSLKPEDTAVYYCNADTTLYPYYDYGYYDYDYWGQGTQVTVSS,low polyreactivity
12,QVQLVESGGGLVQAGGSLRLSCAASGSTFFTYTMGWYRQAPGKERELVAAISSGGSTYYADSVKGRFTISRDNAKNTVYLQMNSLKPEDTAVYYLLRGQGTQVTVSS,low polyreactivity
13,QVQLVESGGGLVQAGGSLRLSCAAYGRIIYLNAMGWYRQAPGKERELVATISSSGGTTNYADSVKGRFTISRDNAKNTVYLQMNSLKPEDTAVYYCAAKFVGTTVSEYGYWGQGTQVTVSS,low polyreactivity
14,QVQLVESGGGLVQAGGSLRLSCAASGGTLDYYVMAWYRQAPGKERELVAAISTNGGSTNYADSVKGRFTISRDNAKNTVYLQMNSLKPEDTAVYYCAATSDVYVFLEFDYWGQGTQVTVSS,low polyreactivity
15,QVQLVESGGGLVQAGGSLRLSCAASGRIFTFYAMGWYRQAPGKERELVAVITTGTSTTYADSVKGRVTISRDNAKNTVYLQMNSLKPEDTAVYYCAVESWSRVQGWLAHNYDYWGQGTQVTVSS,low polyreactivity
16,QVQLVESGGGLVQAGGSLRLSCAASGRTFQYYAMGWYRQAPGKERELVAAISGIGTSTSYADSVKGRFTISRDNAKNTVYLQMNSLKPEDTAVYYCAARLLVPCSPWYTNYYWGQGTQVTVSS,low polyreactivity
17,QVQLVESGGGSVQAGGSLRLSCAASGFTFDKNTMGWYRQAPGKERELVAAISSSGSSTYYADSVKGRFTISRDNAKNTVYLQMNSLKPEDTAVYYCAADYWGWDDYSEYYYWGQGTQVTVSS,high polyreactivity
18,QVQLVESGGGLVQAGGSLRLSCAASGSIFPYYTMGWYRQAPGKERELVAAISGSGTSTYYADSVKGRFTISRDNAKNTVYLQMNSLKPEDTADYYCAAPDPDKVRSEGYGYWGQGTHVTVSS,low polyreactivity
19,QVQLVESGGGLVQAGGSLRLSCAASGIIFWYNTMGWYRQAPGKERELVAAITYGGGSTYYADSVKGRFTISRDNAKNSVYLQMNSLKPEDTAVYYCAVRNWHLIKYLHGYSRYGYWGQGTQVTVSS,low polyreactivity
20,QVQHVESGGGLVQAGGSLRLSCAASGRIFKYNAMGWYRPAPGKERELVAAISYSGGSTYYADSVKGRFTISRDNAKNTVYLQMNSVKPEDTEVYYCAKATTTREPKYGYWGQGTQVTVSS,high polyreactivity
21,QVQLVESGGGLVQAGGSLRLSCAASGRTFNYYAMGWYRQAPGKERELVAAISWSGTPTYYADSVKGRFTISRDNAKNTVYLQMNSLKPEDTAVYYCAAGYNYTSYADLDYWGQGTQVTVSS,low polyreactivity

# — the nanobody polyreactivity screen of Harvey et al. (2022)
